Assay results: patent US20100061942A1 (UNIVERSITY OF MEDICINE AND DENTISTRY OF NEW JERSEY, published 2010)

Target: human STIM1 (human, UniProt Q13586 23-685, limits assumed)
Assay: co-immunoprecipitation from CHO cell lysates, Western blot; repeated with cross-linker DSP and different detergents
Method: Next, the interaction of P311 with SOCE molecular machinery was examined experimentally. The interaction of P311 with known components of SOCE, such as STIM1 and Orai1, was studied. A GFP-myc-Orai1 plasmid and the mammalian expression plasmid containing the human STIM1 cDNA (OriGene, Inc.) were used. The plasmids were transfected into CHO cells and 36 hours after transfection, total cell lysates from CHO cells transiently expressing GFP-myc-Orai1 were incubated with either a polyclonal antibody against P311, or an anti-myc monoclonal antibody, with normal rabbit IgG serving as the control. […] Similar results were obtained when co-IP assays were repeated using reversible cross-linker DSP and different detergents in cell lysis buffer, including Triton X-100, NP-40 and CHAPS.

Sequence of human STIM1 (Q13586 23-685 limits assumed): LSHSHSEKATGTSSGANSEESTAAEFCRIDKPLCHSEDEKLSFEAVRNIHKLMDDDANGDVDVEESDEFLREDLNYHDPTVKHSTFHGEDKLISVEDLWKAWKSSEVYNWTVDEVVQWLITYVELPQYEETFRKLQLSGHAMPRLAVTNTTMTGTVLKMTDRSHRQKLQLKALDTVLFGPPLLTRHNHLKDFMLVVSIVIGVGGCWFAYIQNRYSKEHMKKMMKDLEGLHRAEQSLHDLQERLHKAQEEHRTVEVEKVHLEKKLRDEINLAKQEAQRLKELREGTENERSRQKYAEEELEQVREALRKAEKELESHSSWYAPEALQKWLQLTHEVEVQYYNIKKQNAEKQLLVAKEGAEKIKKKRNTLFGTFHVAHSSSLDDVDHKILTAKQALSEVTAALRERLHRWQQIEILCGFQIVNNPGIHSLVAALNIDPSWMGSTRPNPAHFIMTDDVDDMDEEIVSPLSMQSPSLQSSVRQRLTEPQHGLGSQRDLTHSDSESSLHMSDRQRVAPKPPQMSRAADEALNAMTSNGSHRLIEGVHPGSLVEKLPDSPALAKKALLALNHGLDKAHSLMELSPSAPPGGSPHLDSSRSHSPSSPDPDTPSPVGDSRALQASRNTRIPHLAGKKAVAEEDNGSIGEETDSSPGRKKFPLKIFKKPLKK

B1: P311 (endogenous P311 present in CHO cells) (other)
chain: MVYYPGLLVWVSQEPFLYKEMEGSLTKGRLPVPKEVNRKKLEEARAASMTPPGSHELCFPNISYL
Q: Does B1 bind?
A: no binding
